Test results reported in paper PMC12416549 (2024).

T1: TNFR1 (Homo sapiens, UniProt P19438)
T1 chain: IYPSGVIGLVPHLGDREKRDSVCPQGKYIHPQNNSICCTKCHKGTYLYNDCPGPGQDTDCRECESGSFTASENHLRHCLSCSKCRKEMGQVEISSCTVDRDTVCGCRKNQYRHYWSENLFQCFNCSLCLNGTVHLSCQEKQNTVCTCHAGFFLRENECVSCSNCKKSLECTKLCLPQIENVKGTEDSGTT


Molecular target: T1, TNFR1
Test: yeast display SC50

| Binder | apparent Kd (screen) [nM] |
| --- | --- |
| L75T (designed binder) SMEEEVEKAAKEYEKKKKEAIEKHLEKLKAKDKEAAERFLKELEEAAKEYAKDEAKTMSEEEAKRRAKKYKEKVTLSELSEEEQKEIKEAEEKLVRTILKYVEEAAK | 0.446 |
| Y70H (designed binder) SMEEEVEKAAKEYEKKKKEAIEKHLEKLKAKDKEAAERFLKELEEAAKEYAKDEAKTMSEEEAKRRAKKHKEKVLLSELSEEEQKEIKEAEEKLVRTILKYVEEAAK | 5.31 |
| E62R (designed binder) SMEEEVEKAAKEYEKKKKEAIEKHLEKLKAKDKEAAERFLKELEEAAKEYAKDEAKTMSEERAKRRAKKYKEKVLLSELSEEEQKEIKEAEEKLVRTILKYVEEAAK | 0.49 |
| K41R (designed binder) SMEEEVEKAAKEYEKKKKEAIEKHLEKLKAKDKEAAERFLRELEEAAKEYAKDEAKTMSEEEAKRRAKKYKEKVLLSELSEEEQKEIKEAEEKLVRTILKYVEEAAK | 0.869 |
| S80P (designed binder) SMEEEVEKAAKEYEKKKKEAIEKHLEKLKAKDKEAAERFLKELEEAAKEYAKDEAKTMSEEEAKRRAKKYKEKVLLSELPEEEQKEIKEAEEKLVRTILKYVEEAAK | 0.446 |
| E72P (designed binder) SMEEEVEKAAKEYEKKKKEAIEKHLEKLKAKDKEAAERFLKELEEAAKEYAKDEAKTMSEEEAKRRAKKYKPKVLLSELSEEEQKEIKEAEEKLVRTILKYVEEAAK | 1.05 |
| D32A (designed binder) SMEEEVEKAAKEYEKKKKEAIEKHLEKLKAKAKEAAERFLKELEEAAKEYAKDEAKTMSEEEAKRRAKKYKEKVLLSELSEEEQKEIKEAEEKLVRTILKYVEEAAK | 1.4 |
| E89V (designed binder) SMEEEVEKAAKEYEKKKKEAIEKHLEKLKAKDKEAAERFLKELEEAAKEYAKDEAKTMSEEEAKRRAKKYKEKVLLSELSEEEQKEIKVAEEKLVRTILKYVEEAAK | 2.73 |
| V95E (designed binder) SMEEEVEKAAKEYEKKKKEAIEKHLEKLKAKDKEAAERFLKELEEAAKEYAKDEAKTMSEEEAKRRAKKYKEKVLLSELSEEEQKEIKEAEEKLERTILKYVEEAAK | 11.4 |
| K41C (designed binder) SMEEEVEKAAKEYEKKKKEAIEKHLEKLKAKDKEAAERFLCELEEAAKEYAKDEAKTMSEEEAKRRAKKYKEKVLLSELSEEEQKEIKEAEEKLVRTILKYVEEAAK | 0.49 |
| L43M (designed binder) SMEEEVEKAAKEYEKKKKEAIEKHLEKLKAKDKEAAERFLKEMEEAAKEYAKDEAKTMSEEEAKRRAKKYKEKVLLSELSEEEQKEIKEAEEKLVRTILKYVEEAAK | 1.86 |
| L99T (designed binder) SMEEEVEKAAKEYEKKKKEAIEKHLEKLKAKDKEAAERFLKELEEAAKEYAKDEAKTMSEEEAKRRAKKYKEKVLLSELSEEEQKEIKEAEEKLVRTITKYVEEAAK | 5.31 |
| K71E (designed binder) SMEEEVEKAAKEYEKKKKEAIEKHLEKLKAKDKEAAERFLKELEEAAKEYAKDEAKTMSEEEAKRRAKKYEEKVLLSELSEEEQKEIKEAEEKLVRTILKYVEEAAK | 2.73 |
| A67H (designed binder) SMEEEVEKAAKEYEKKKKEAIEKHLEKLKAKDKEAAERFLKELEEAAKEYAKDEAKTMSEEEAKRRHKKYKEKVLLSELSEEEQKEIKEAEEKLVRTILKYVEEAAK | 10.4 |
| K41F (designed binder) SMEEEVEKAAKEYEKKKKEAIEKHLEKLKAKDKEAAERFLFELEEAAKEYAKDEAKTMSEEEAKRRAKKYKEKVLLSELSEEEQKEIKEAEEKLVRTILKYVEEAAK | 0.718 |
| H24E (designed binder) SMEEEVEKAAKEYEKKKKEAIEKELEKLKAKDKEAAERFLKELEEAAKEYAKDEAKTMSEEEAKRRAKKYKEKVLLSELSEEEQKEIKEAEEKLVRTILKYVEEAAK | 0.49 |
| A105T (designed binder) SMEEEVEKAAKEYEKKKKEAIEKHLEKLKAKDKEAAERFLKELEEAAKEYAKDEAKTMSEEEAKRRAKKYKEKVLLSELSEEEQKEIKEAEEKLVRTILKYVEETAK | 0.869 |

| Binder | apparent Kd (screen) [nM] |
| --- | --- |
| K16A (designed binder) SMEEEVEKAAKEYEKAKKEAIEKHLEKLKAKDKEAAERFLKELEEAAKEYAKDEAKTMSEEEAKRRAKKYKEKVLLSELSEEEQKEIKEAEEKLVRTILKYVEEAAK | 2.73 |
| A20G (designed binder) SMEEEVEKAAKEYEKKKKEGIEKHLEKLKAKDKEAAERFLKELEEAAKEYAKDEAKTMSEEEAKRRAKKYKEKVLLSELSEEEQKEIKEAEEKLVRTILKYVEEAAK | 2.73 |
| K56M (designed binder) SMEEEVEKAAKEYEKKKKEAIEKHLEKLKAKDKEAAERFLKELEEAAKEYAKDEAMTMSEEEAKRRAKKYKEKVLLSELSEEEQKEIKEAEEKLVRTILKYVEEAAK | 0.718 |
| K69A (designed binder) SMEEEVEKAAKEYEKKKKEAIEKHLEKLKAKDKEAAERFLKELEEAAKEYAKDEAKTMSEEEAKRRAKAYKEKVLLSELSEEEQKEIKEAEEKLVRTILKYVEEAAK | 0.49 |
| E26S (designed binder) SMEEEVEKAAKEYEKKKKEAIEKHLSKLKAKDKEAAERFLKELEEAAKEYAKDEAKTMSEEEAKRRAKKYKEKVLLSELSEEEQKEIKEAEEKLVRTILKYVEEAAK | 0.539 |
| E7R (designed binder) SMEEEVRKAAKEYEKKKKEAIEKHLEKLKAKDKEAAERFLKELEEAAKEYAKDEAKTMSEEEAKRRAKKYKEKVLLSELSEEEQKEIKEAEEKLVRTILKYVEEAAK | 5.84 |
| Q84R (designed binder) SMEEEVEKAAKEYEKKKKEAIEKHLEKLKAKDKEAAERFLKELEEAAKEYAKDEAKTMSEEEAKRRAKKYKEKVLLSELSEEERKEIKEAEEKLVRTILKYVEEAAK | 1.4 |
| E91S (designed binder) SMEEEVEKAAKEYEKKKKEAIEKHLEKLKAKDKEAAERFLKELEEAAKEYAKDEAKTMSEEEAKRRAKKYKEKVLLSELSEEEQKEIKEASEKLVRTILKYVEEAAK | 10.4 |
| K71Q (designed binder) SMEEEVEKAAKEYEKKKKEAIEKHLEKLKAKDKEAAERFLKELEEAAKEYAKDEAKTMSEEEAKRRAKKYQEKVLLSELSEEEQKEIKEAEEKLVRTILKYVEEAAK | 0.446 |
| K29M (designed binder) SMEEEVEKAAKEYEKKKKEAIEKHLEKLMAKDKEAAERFLKELEEAAKEYAKDEAKTMSEEEAKRRAKKYKEKVLLSELSEEEQKEIKEAEEKLVRTILKYVEEAAK | 0.869 |
| E44I (designed binder) SMEEEVEKAAKEYEKKKKEAIEKHLEKLKAKDKEAAERFLKELIEAAKEYAKDEAKTMSEEEAKRRAKKYKEKVLLSELSEEEQKEIKEAEEKLVRTILKYVEEAAK | 0.956 |
| R38A (designed binder) SMEEEVEKAAKEYEKKKKEAIEKHLEKLKAKDKEAAEAFLKELEEAAKEYAKDEAKTMSEEEAKRRAKKYKEKVLLSELSEEEQKEIKEAEEKLVRTILKYVEEAAK | 2.73 |
| E7C (designed binder) SMEEEVCKAAKEYEKKKKEAIEKHLEKLKAKDKEAAERFLKELEEAAKEYAKDEAKTMSEEEAKRRAKKYKEKVLLSELSEEEQKEIKEAEEKLVRTILKYVEEAAK | 6.43 |
| A90R (designed binder) SMEEEVEKAAKEYEKKKKEAIEKHLEKLKAKDKEAAERFLKELEEAAKEYAKDEAKTMSEEEAKRRAKKYKEKVLLSELSEEEQKEIKEREEKLVRTILKYVEEAAK | 0.446 |
| A106F (designed binder) SMEEEVEKAAKEYEKKKKEAIEKHLEKLKAKDKEAAERFLKELEEAAKEYAKDEAKTMSEEEAKRRAKKYKEKVLLSELSEEEQKEIKEAEEKLVRTILKYVEEAFK | 13.8 |
| Y50D (designed binder) SMEEEVEKAAKEYEKKKKEAIEKHLEKLKAKDKEAAERFLKELEEAAKEDAKDEAKTMSEEEAKRRAKKYKEKVLLSELSEEEQKEIKEAEEKLVRTILKYVEEAAK | 7.78 |
